These results are taken from the Immune Epitope Database (IEDB).

What is called Kd is the concentration at which binding is half-saturated.

Among the targets are HLA-A*02:02; HLA-A*02:03; HLA-A*02:06; HLA-A*68:02; HLA-A*02:01.
Holding throughout (assay): IEDB peptide-MHC binding, purified MHC/competitive/radioactivity; filed as Kd, often an IC50 or EC50 that approximates it; ≥ and ≤ were set here for values at or beyond the usual limits of such assays
[1] abbreviates: source organism: Lassa virus Josiah.
Where [2] appears, read: source organism: Pichinde virus strain Munchique.
[3] abbreviates: source organism: Guanarito virus strain INH-95551.
[4] abbreviates: source organism: Whitewater Arroyo virus strain AV9310135.

YLISIFLHL: the equilibrium dissociation constant (Kd) with HLA-A*02:02 (setting [1]) came out at 173 nM; in the test with HLA-A*02:03 (setting [1]), 11 nM; with HLA-A*02:06 (setting [1]), 10 nM.
Regarding YTITVFLHL, the dissociation constant Kd with HLA-A*68:02 (setting [2]) turned out to be 5 nM; with HLA-A*02:02 (setting [2]) it was 128 nM; in the test with HLA-A*02:03 (setting [2]) it was 14800 nM; with HLA-A*02:01 (setting [2]) it was 10 nM; with HLA-A*02:06 (setting [2]), 7 nM.
As for GTTSLFLHL, the equilibrium dissociation constant (Kd) with HLA-A*68:02 (setting [3]) was 5 nM; in the test with HLA-A*02:02 (setting [3]), 57 nM; with HLA-A*02:03 (setting [3]), 750 nM; in the test with HLA-A*02:01 (setting [3]), 49 nM; with HLA-A*02:06 (setting [3]), 5 nM.
Take YVSSIFLHL: the Kd with HLA-A*68:02 (setting [4]) was at most 1 nM; with HLA-A*02:02 (setting [4]) it was at most 1 nM; with HLA-A*02:03 (setting [4]), 10 nM; with HLA-A*02:06 (setting [4]), 15 nM.
